Results reported in publication PMC2199961.
Where “and” joins values, the source holds several entries; their conditions need not be identical. Equal entries are not always repeated.

Target: aortic smooth muscle actin (alpha-smooth muscle actin) (bovine) (UniProt P62739)
Experiment: co-sedimentation

percent of actin in the pellet (actin alone): 10% and 20%
percent of actin in the pellet (with anti-aSM-1 at 1:16 antibody/actin): > 60%
Substance: aortic smooth muscle actin (alpha-smooth muscle actin) (from UniProt P62739 3-377) (natural protein)
